Experimental data as given in patent publication US20130079278A1 (Novo Nordisk, published 2013).
*1 amine or outer side, *2 acyl side, *3 side chain or, on linkers, in order; H or OH if unused. Where no end group is shown, it is not given here. Side-chain parts run from the residue outwards. The star is where a group is joined. X1 = 4‑(16-(1H-tetrazol-5-yl)hexadecanoylsulfamoyl)butanoyl, O=C(CCCCCCCCCCCCCCCc1nnn[nH]1)NS(=O)(=O)CCCC(=O)*; C18 diacid = O=C(O)CCCCCCCCCCCCCCCCC(=O)*; C16 diacid = O=C(O)CCCCCCCCCCCCCCC(=O)*; γGlu = O=C(O)[C@H](CCC(=O)[*:2])N[*:1]; AEEA = NCCOCCOCC(=O)O

B1: N^ε24-[(4S)-4-carboxy-4-[[(4S)-4-carboxy-4-[[2-[2-[2-[[2-[2-[2-[[(4S)-4-carboxy-4-(17-carboxyheptadecanoylamino)butanoyl]amino]ethoxy]ethoxy]acetyl]amino]ethoxy … (peptide)
peptide: HSQGTFTSDYSKYLESRRAQDFVK([γGlu-γGlu-AEEA-AEEA-γGlu-C18 diacid])WLLST-NH2
modifications: N-terminus assumed
SMILES: CC(C)C[C@H](NC(=O)[C@H](Cc1ccc(O)cc1)NC(=O)[C@H](CCCCN)NC(=O)[C@H](CO)NC(=O)[C@H](Cc1ccc(O)cc1)NC(=O)[C@H](CC(=O)O)NC(=O)[C@H](CO)NC(=O)[C@@H](NC(=O)[C@H](Cc1ccccc1)NC(=O)[C@@H](NC(=O)CNC(=O)[C@H](CCC(N)=O)NC(=O)[C@H](CO)NC(=O)[C@@H](N)Cc1c[nH]cn1)[C@@H](C)O)[C@@H](C)O)C(=O)N[C@@H](CCC(=O)O)C(=O)N[C@@H](CO)C(=O)N[C@@H](CCCNC(=N)N)C(=O)N[C@@H](CCCNC(=N)N)C(=O)N[C@@H](C)C(=O)N[C@@H](CCC(N)=O)C(=O)N[C@@H](CC(=O)O)C(=O)N[C@@H](Cc1ccccc1)C(=O)N[C@H](C(=O)N[C@@H](CCCCNC(=O)CC[C@H](NC(=O)CC[C@H](NC(=O)COCCOCCNC(=O)COCCOCCNC(=O)CC[C@H](NC(=O)CCCCCCCCCCCCCCCCC(=O)O)C(=O)O)C(=O)O)C(=O)O)C(=O)N[C@@H](Cc1c[nH]c2ccccc12)C(=O)N[C@@H](CC(C)C)C(=O)N[C@@H](CC(C)C)C(=O)N[C@@H](CO)C(=O)N[C@H](C(N)=O)[C@@H](C)O)C(C)C
B2: N^ε24-[(4S)-4-carboxy-4-[[2-[2-[2-[[2-[2-[2-[[(4S)-4-carboxy-4-[[(4S)-4-carboxy-4-(17-carboxyheptadecanoylamino)butanoyl]amino]butanoyl]amino]ethoxy]ethoxy]acet … (peptide)
peptide: HSQGTFTSDVSKYLDTRRAQEFVK([γGlu-AEEA-AEEA-γGlu-γGlu-C18 diacid])WLLST-NH2
modifications: N-terminus assumed
SMILES: CC(C)C[C@H](NC(=O)[C@H](Cc1c[nH]c2ccccc12)NC(=O)[C@H](CCCCNC(=O)CC[C@H](NC(=O)COCCOCCNC(=O)COCCOCCNC(=O)CC[C@H](NC(=O)CC[C@H](NC(=O)CCCCCCCCCCCCCCCCC(=O)O)C(=O)O)C(=O)O)C(=O)O)NC(=O)[C@@H](NC(=O)[C@H](Cc1ccccc1)NC(=O)[C@H](CCC(=O)O)NC(=O)[C@H](CCC(N)=O)NC(=O)[C@H](C)NC(=O)[C@H](CCCNC(=N)N)NC(=O)[C@H](CCCNC(=N)N)NC(=O)[C@@H](NC(=O)[C@H](CC(=O)O)NC(=O)[C@H](CC(C)C)NC(=O)[C@H](Cc1ccc(O)cc1)NC(=O)[C@H](CCCCN)NC(=O)[C@H](CO)NC(=O)[C@@H](NC(=O)[C@H](CC(=O)O)NC(=O)[C@H](CO)NC(=O)[C@@H](NC(=O)[C@H](Cc1ccccc1)NC(=O)[C@@H](NC(=O)CNC(=O)[C@H](CCC(N)=O)NC(=O)[C@H](CO)NC(=O)[C@@H](N)Cc1c[nH]cn1)[C@@H](C)O)[C@@H](C)O)C(C)C)[C@@H](C)O)C(C)C)C(=O)N[C@@H](CC(C)C)C(=O)N[C@@H](CO)C(=O)N[C@H](C(N)=O)[C@@H](C)O

molecular target: glucagon receptor (human, UniProt P47871 26-477); assay: cell-based or functional assay
Sequence (P47871 26-477): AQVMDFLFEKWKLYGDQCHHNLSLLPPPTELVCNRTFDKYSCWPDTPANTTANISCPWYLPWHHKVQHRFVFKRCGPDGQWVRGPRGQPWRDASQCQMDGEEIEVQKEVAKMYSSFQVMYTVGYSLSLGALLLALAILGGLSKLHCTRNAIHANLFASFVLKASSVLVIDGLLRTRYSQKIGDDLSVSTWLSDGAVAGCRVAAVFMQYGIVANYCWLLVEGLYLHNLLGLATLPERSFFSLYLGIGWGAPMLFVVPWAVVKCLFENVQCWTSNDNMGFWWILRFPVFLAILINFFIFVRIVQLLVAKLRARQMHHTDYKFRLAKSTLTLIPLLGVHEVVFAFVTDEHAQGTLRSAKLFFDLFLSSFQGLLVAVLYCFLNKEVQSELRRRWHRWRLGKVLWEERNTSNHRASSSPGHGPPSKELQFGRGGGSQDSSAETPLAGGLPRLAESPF

| Assay (I) Glucagon [EC50] [nM] | Binder |
| --- | --- |
| 0.136 | HSQGTFTSDYSRYLDLRRAQDFVK([γGlu-γGlu-AEEA-AEEA-γGlu-C18 diacid])WLEST |
| 0.204 | HSQGTFTSDYSRYLDLRRAQDFVK([γGlu-γGlu-AEEA-AEEA-γGlu-C18 diacid])WLLQT |
| 0.134 | B1 |
| 0.095 | HSQGTFTSDYSRYLDLRRAQEFVK([γGlu-γGlu-AEEA-AEEA-γGlu-C18 diacid])WLLST |
| 0.289 | HSQGTFTSDYSRYLESRRAQEFVK([γGlu-γGlu-AEEA-AEEA-γGlu-C18 diacid])WLLST |
| 0.357 | HSQGTFTSDYSRYLDLRRAQDFVK([γGlu-γGlu-AEEA-AEEA-X1])WLLST |
| 0.169 | HSQGTFTSDYSKYLESRRAQEFVK([γGlu-γGlu-γGlu-γGlu-C18 diacid])WLLST |
| 0.395 | HSQGTFTSDYSKYLESRRAQDFVK([γGlu-γGlu-AEEA-X1])WLLST |
| 0.088 | HSQGTFTSDVSKYLDLRRAQEFVK([γGlu-AEEA-AEEA-γGlu-γGlu-C18 diacid])WLLST |
| 0.156 | B2 |
| 0.362 | HSQGTFTSDYSKYLESRRAQDFVK([γGlu-γGlu-AEEA-γGlu-X1])WLLST |
| 0.192 | HSQGTFTSDYSKYLDARRAQDFVK([γGlu-γGlu-AEEA-AEEA-γGlu-C18 diacid])WLLQT |
| 0.109 | HSQGTFTSDYSRYLDLRRAQDFVK([γGlu-γGlu-γGlu-γGlu-C16 diacid])WLLST |
| 0.148 | HSQGTFTSDYSRYLESRRAQEFVK([γGlu-γGlu-γGlu-γGlu-C18 diacid])WLLST |
| 0.106 | HSQGTFTSDYSRYLDARRAQDFVK([γGlu-γGlu-γGlu-γGlu-C16 diacid])WLLST |
| 0.105 | HSHGTFTSDYSKYLDSRRAQDFVK([γGlu-γGlu-AEEA-AEEA-γGlu-C18 diacid])WLLNT |
